Assay results taken from US10508147B2, “Anti-nodal antibodies and methods of using same” (ANN AND ROBERT H. LURIE CHILDREN'S HOSPITAL OF CHICAGO, priority 2014, dated 2019).
Entries after “also recorded” stand apart in the source; their conditions may differ.

What was measured:
[1] = molecular target: T1, native Nodal protein in LCP, A375 and WM266 melanoma cells (Homo sapiens, UniProt Q96S42); test: FACS staining of Nodal in fixed and permeabilized human melanoma cell lines with 3D1; format: binding; settings: 0.1-2.0 μg/mL, dose-dependent
T1 construct: recognize the endogenous forms of Nodal protein in human melanoma cells; endogenous in cells; host or cells: human melanoma lines PES, A-375, SK-MEL, WM 266, LCM (blot); LCP, A375, WM266 (FACS)
T1 sequence (Q96S42 238-347): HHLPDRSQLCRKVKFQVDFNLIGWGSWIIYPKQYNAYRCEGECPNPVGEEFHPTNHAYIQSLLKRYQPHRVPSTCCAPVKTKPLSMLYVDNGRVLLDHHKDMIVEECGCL
Method: LCP, A375 and WM266 melanoma cells were collected by centrifugation. After aspiration of supernatant, the cells were resuspended in 500 μL of PBS and formaldehyde was added to obtain a final concentration of 4%. Cells were fixed for 10 min at room temperature. After fixation, cells were permeabilized by adding 500 μL of PBS-Tween 20. 1×10^6 cells were aliquoted into each vial; 1 mL of PBS (incubation buffer) was added to each vial and cells were washed by centrifugation at 4000 rpm for 5 min at 4° C. Cells were resuspended in 100 μL of solution of 3D1 anti-Nodal antibody (primary antibody), diluted in PBS at the following concentrations: 0.1, 0.5, 1.0 and 2.0 μg/mL. A standard IgG1 isotype was used as negative control. Cells were incubated with the primary antibody for 1 h at 4° C. under shaking. After incubation, cells were washed by centrifugation in 1 mL of PBS, resuspended and incubated with a FITC-conjugated anti-mouse antibody (secondary antibody), diluted 1:1000 (1.0 μg/mL) in PBS, for 40 min at 4° C. in the dark under stirring. Cells were washed by centrifugation with 1 mL of incubation buffer, re-suspended in […] and analyzed on flow cytometer. Fluorescence was evaluated using the BD FACScalibur System.

C8161 cells = test: C8161 orthotopic (subcutaneous) xenograft in Nude mice, intratumoral treatment; format: in vivo
Method: Experiments were carried out to determine the in vivo effects of 3D1 mAb on primary melanoma. To this end, 500,000 C8161 cells were injected subcutaneously in Nude mice. Palpable tumors were then injected directly with either 700 μg of total 3D1 mAb or IgG control antibody (alternate day intratumoral injection of 100 μg over 14 days). Mice were then sacrificed and subcutaneous tumors harvested and processed as previously described. To evaluate the effect of 3D1 mAb in the presence of the BRAF(V600E) mutation, a third orthotopic xenograft model was established in Nude mice via subcutaneous injection of approximately 150,000 A375SM human metastatic melanoma cells. Mice were treated IP with 3D1 mAb or IgG control, as described above, or 3 mg/kg of dabrafenib.
Four micron thick, formalin fixed, paraffin embedded tissue sections were prepared and immunohistochemistry was carried out on a Dako Plus autostainer (DAKO, Inc, Carpenteria, Calif.). […] Similar to the lung tumor burden evaluation described above, mean percentage of positive staining±SEM was determined by 2 different observers, each calculating the ratio of positive cells/total number of cells×100 for 4 separate high power fields (63× objective) from at least 2 different mice per group.

hNodal(44-67) peptide [2] = molecular target: T2, hNodal(44-67) peptide (Homo sapiens, UniProt Q96S42); test: ELISA screening of hybridoma supernatants on coated hNodal(44-67) and hNodal(44-67)E49A-E50A; format: binding; settings: peptides coated at 330 nM; supernatants at 5.0 μg/mL (33 nM)
T2 construct: made in house; host or cells: chemical synthesis (Fmoc solid phase)
Method: (§1) Screening of hybridoma supernatants was carried out by ELISA coating the hNodal(44-67) BSA-conjugated peptide. Nine clones were positive. The pre-selected hybridoma supernatants were screened using in parallel hNodal(44-67) and its mutated variant hNodal(44-67)E49A-E50A. The assay was performed coating the unconjugated peptides at 330 nM and testing the hybridoma supernatants at a total protein concentration of 5.0 μg/mL (33 nM).
(§2) For hybridoma supernatants screening, hNodal(44-67) and hNodal(44-67)E49A-E50A were coated at 330 nM diluted in PBS on polystyrene conical flat bottom 96-well plates at 4° C. overnight (100 μL/well). After incubation, the coated wells were washed three times with PBS containing 0.005% Tween-20 (PBS-T) and non-specific binding sites were blocked by incubating with 1% BSA in PBS (300 μL/well) for 1 h at 37° C. After washing three times with PBS-T, supernatants of hybridomas diluted in PBS at 33 nM were incubated for 1 h at 37° C. (100 μL/well). […] After incubation and three washes with PBS-T, bound antibodies were detected by adding 100 μL/well of freshly prepared 0-phenylenediamine (0.4 mg/mL) containing H2O2 (0.4 mg/mL) in 0.1 M citrate buffer (pH 5.2) (SIGMAFAST™ OPD tablet Sigma-Aldrich). The peroxidase reaction was stopped after 5 min with 50 μL/well of 2.5 M H2SO4 and the optical density was measured at 490 nm, using a microplate reader. […]

hNodal(44-67) peptide [3] = test: as above; format: binding, human; settings: ELISA
Method: as §1, §2

- recognition of the immobilized antigen hNodal(44-67) (hNodal(44-67) peptide [2]): recognized the immobilized antigen
B1: 3D1: mouse monoclonal anti-Nodal antibody raised against hNodal(44-67); light chain SEQ ID NO:1, heavy chains SEQ ID NO:2 and 3 (protein)
light: DIKMTQSPASLSASVGETVTITCRASGNIHNYLAWYQQKQGKSPQLLVYNAKTLADGVPSRFSGSGSGTQYSLKINSLQPEDFGSYYCQHFWSTPHVRCWDQAGTETEAW
heavy 1: VKLVESGGGLVKPGGSLKLSCAASGFTFSSYAMSWVRQTPEKRLEWVASISSGGCTYYPDSVKGRFTISRDNARNILYLQMSSLRSEDTAMYYCARGSMITADGNSLLLCYGLLGSRNLXHR
heavy 2: VKLVESGGGLVQPGGSMKLSCVASGFTFRNYWMSWVRQSPEKGLEWVAEIRLKSDNYAARYAESVKGKFTISRDDSKSRLYLQMNSLRAEDTGIYYCTGIRRFAYWGQGTL
modifications: not fully specified; (120)..(120) Xaa can be any naturally occurring amino acid
- binding to native Nodal protein in cells (FACS) [1]: bound native Nodal protein also in intact cells at very low concentrations
- mean percentage (±SEM) of cells with strong positive nuclear P-Smad2 staining (C8161 cells; IHC of tumor sections, N=4): 51.3%±3.3%
- tumor volumes (C8161 cells; direct intratumoral injection, days 8 to 14, vs IgG control, listed as 3D1 mAb): significantly smaller; also recorded: Reduced tumor volumes
- recognition of wild-type hNodal peptide versus E49A-E50A mutated variant (hNodal(44-67) peptide [3]): displayed selectivity for wild type Nodal peptide; also recorded: much better than the mutated variant; also recorded: recognizes less robustly the mutated peptide variant
